Reference: patent publication US20240425607A1, “IL-18BP ANTAGONIST ANTIBODIES AND THEIR USE IN MONOTHERAPY AND COMBINATION THERAPY IN THE TREATMENT OF CANCER” (Compugen Ltd., priority 2023, published 2024)

Tests used:
endogenous IL-18BP = biological target: T1, endogenous IL-18BP (Homo sapiens, UniProt O95998); test: TIL:MEL624 co-culture with endogenous IL-18BP levels; type: cell-based; settings: 5 μg/ml; IL-18 3.7 ng/ml, no added IL-18BP; 18 hours; vs isotype
T1 construct: endogenous in cells; host or cells: MEL624 cells and human TILs
T1 sequence (O95998 31-194): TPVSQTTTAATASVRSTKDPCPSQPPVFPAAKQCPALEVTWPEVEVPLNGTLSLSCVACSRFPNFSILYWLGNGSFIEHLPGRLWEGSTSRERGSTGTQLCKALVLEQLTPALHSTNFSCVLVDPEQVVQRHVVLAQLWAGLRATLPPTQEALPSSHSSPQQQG
Protocol: A. Schematic representation of assay setup. MEL624 cells were co-cultured with human TILs that were previously enriched for MART1 or gp100 peptide-specific clones. […] The co-culture was set for 18 hours following which IFNg levels were measured in supernatants. […] Representative examples from two TIL donors are shown.

[1] = test system: human TDCs with endogenous IL18 and IL18BP; test: Ex vivo culture of human tumor dissociated cells (TDCs); type: cell-based
Protocol: Resected tumor specimens were cut into 1 mm pieces using scalpel and transferred into enzymatic digestion mix (Tumor Dissociation kit, Miltenyi, 130-095-929). Dissociation was done according to the manufacturer's instructions using gentle MACS Dissociator (Miltenyi Biotec). Dissociation time lasted 1 h under mechanical rotation and heating. Samples were centrifuged for 3 min at 300 g, pellet was resuspended in RPMI, passed through a MACS SmartStrainer (70 μm), and centrifuged for 7 min at 300 g. Cells were resuspended with RBC for 3 min, washed with RPMI 1640, transferred through 40 μm filter and centrifuged for 7 min at 300 g. Finally, cells were resuspended in PBS, stained with Trypan blue and counted. Samples were then stained for flow cytometric analyses or resuspended in fetal bovine serum containing 10% of dimethyl sulfoxide for storage in liquid nitrogen.
Human TDC samples were seeded at 0.1×10^6 of CD45+ cells per well in 96-well plate, pre-coated with anti-CD3 and anti-CD28 antibodies (10 μg/ml both). Complete medium, [RPMI 1640 (BI, Cat. #01-110-1A) supplemented with 10% human AB serum (Sigma, Cat. #H3667), 1% Penicillin/Streptomycin (BI, Cat. #03-031-1B), 1% 1-glutamine (Life Technologies, Cat. #35050-038) and 1% of sodium pyruvate (BI, Cat. #03-042-1B)] was used. […]

[2] = Fab Tm by dynamic scanning fluorimetry (DSF); type: physicochemical; settings: optimized antibodies
Protocol: 10 μL of 20× Sypro Orange is added to 20 μL of 0.2-1 mg/mL mAb or Fab solution. A RT-PCR instrument (BioRad CFX96 RT PCR) is used to ramp the sample plate temperature from 40 to 95° C. at 0.5° C. increment, with 2 min equilibrate at each temperature. The negative of first derivative for the raw data is used to extract Tm.

[3] = test system: MEL624 cells co-cultured with human TILs; test: Killing of MEL624 melanoma cells by human TILs (IncuCyte); type: cell-based; settings: 10 μg/ml; rhIL-18 50 ng/ml + rhIL-18BP 1 μg/ml; 72 hours
Protocol: The co-culture was monitored for 72 hours using an IncuCyte live cell imaging instrument. […] In the presence of the isotype control antibody (black), IL-18BP abrogated the effects of IL-18, while the anti-IL-18BP antibody (turquoise) was able to completely restore these effects.

SEC-HPLC % monomer = type: physicochemical; settings: optimized antibodies
Protocol: A TSKgel SuperSW mAb HTP column (22855) was used for fast SEC analysis of mammalian produced mAbs at 0.4 mL/min with a cycle time of 6 min/run. 200 mM Sodium Phosphate and 250 mM Sodium Chloride was used as the mobile phase.

[4] = biological target: T2, recombinant human IL18-BP (Homo sapiens, UniProt O95998); test: MEL624:TIL assay; type: cell-based; settings: rhIL-18 30 ng/ml + rhIL-18BP 1 μg/ml, vs isotype control
T2 construct: purchased R&D systems 119-BP
T2 sequence (O95998 31-194): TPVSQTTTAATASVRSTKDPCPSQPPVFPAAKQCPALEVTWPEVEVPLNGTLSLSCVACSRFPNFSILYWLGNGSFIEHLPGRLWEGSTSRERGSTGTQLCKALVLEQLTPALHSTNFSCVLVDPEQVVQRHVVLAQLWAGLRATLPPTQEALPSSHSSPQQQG
Protocol: Human MEL624 cells were thawed and grown in DMEM with 10% FBS, 1% Glutamax, 1% Penicillin-Streptomycin Solution and 1% HEPES buffer. The cells were then seeded at 75 k cells/well in a 96 well plate in the assay medium (IMDM with 10% human serum, 1% Glutamax, 1% MEM eagle, 1% Sodium Pyruvate and 1% Penicillin-Streptomycin Solution) and incubated 1 hour in 37° C., 5% CO2 incubator before co-culture with human tumor infiltrating lymphocytes that were previously expanded using known melanoma antigens (TILs). Human TILs were thawed in full TIL media and 75 k cells/well were co-cultured with the MEL624 cells to create an effector: target ratio of 1:1. The co-cultured cells were then treated with rhIL-18 (30 ng/ml) and rhIL-18BP (1 μg/ml) for 30 min in 37° C., 5% CO2 incubator to allow IL-18:IL-18BP complex formation. After 30 minutes, anti-human IL-18BP mAb (ADI-71722, dose titration, 30 μg/ml-0.01 μg/ml, dilution factor of 1:3) or relevant isotype control (hIgG1 30 μg/ml) were added to the co-culture to examine its capability to restore IL-18 activity. Cells and all added solutions were prepared in full assay medium to a final volume of 200 μl/well. Plates were incubated for 24 hours in 37° C., 5% CO2 incubator, after which the supernatant was collected for cytokine secretion evaluation. All tests were done in triplicates and each repeated with TIL four donors. […]

B1: ADI-71739: anti-IL18-BP antibody, sequences in FIG. 2K; 66716 lineage (antibody, V domains shown)
VH: QLQLQESGPGLVKPSETLSLTCTVSGGSISSPDYPWGWIRQPPGKGLEWIGSIYYQGATYYNPSLKSRVTISVDTSKNQFSLKLSSVTAADTAVYYCARGPYRQLFDYWGQGTLVTVSS
VL: DIQMTQSPSSVSASVGDRVTITCRASQGISSWLAWYQQKPGKAPKLLIYAASSLQSGVPSRFSGSGSGTDFTLTISSLQPEDFATYYCQQGSVFPYTFGGGTKVEIK
Endogenous IL-18BP
  IFNg release by tumor infiltrating lymphocytes: increased IFNg release
[1]; 10 μg/ml, anti-CD3/anti-CD28 stimulation, human ovarian TDC sample
  Cytokine and Granzyme B secretion by TDCs, vs media: enhanced TNFa, IFNg, IL2 and Granzyme B secretion
[1]; each 10 μg/ml
  Cytokine and Granzyme B secretion by TDCs, combination with pembrolizumab vs Pembro alone: further increased TNFa, IFNg, and Granzyme B secretion
[2]
  Fab Tm (DSF, ° C.): 73.0 °C
[3]
  Killing of melanoma cells by tumor infiltrating lymphocytes: increased killing of melanoma cells
SEC-HPLC % monomer
  SEC-HPLC, % monomer: 94.9%
[4]
  IFNγ secretion from TILs: increase IFNγ secretion from TILs
